{"source": "paper PMC11275766", "about": "(bioRxiv, 2024)", "biological_target": "ancestral SARS-CoV-2 RBD (recombinant, ELISA antigen) (SARS-CoV-2 ancestral (Wuhan-Hu-1/WA.1), UniProt P0DTC2)", "assay": "ELISA"}
{"binder": "M2 mAb (human IgG1) (antibody, V domains shown) VH: QLQESGPGLVKPSEILSLTCSVSGGSINTNMYYWGWIRQPPGKGLEWIGSIYYSGTTYYNPSLKSRVTMSVDTSENQFSLKLTSVTAADTSVYFCARLPLGERIDYWGRGTLVTVSS VL: SSDLTQPPSVSVSPGQTASITCSGNKLGDTYVFWYQQKPGQSPVAVINEDNKRPSGIPERFSGSNSGNTATLTISGTQTMDEADYYCQVWDSSQMVFGGGTKLTVL", "values": [{"measurement": "binding result", "value": "no binding (tested: 30 μg/mL)"}]}
